Data as given in patent publication US20250320281A1.

Legend:
Experiment in all cases: cell-based or functional assay
[1] = target: HIV-1 Env of isolate MGRM-AG-008 (subtype AG) (HIV-1)
[2] = target: HIV-1 Env of isolate 98CN009 (HIV-1)
[3] = target: HIV-1 Env of isolate MG RM-D-016 (HIV-1)
[4] = target: HIV-1 Env of isolate 93IN905 (subtype C) (HIV-1)
[5] = target: HIV-1 Env of isolate TRJ04551.58 (subtype B) (HIV-1)
[6] = target: HIV-1 Env of isolate JR-CSF (pseudovirus) (HIV-1) (UniProt P20871)
[7] = target: HIV-1 envelope glycoprotein (Env) of isolate MGRM-C-006 (HIV-1)
[8] = target: HIV-1 Env of isolate TRO.11 (subtype B) (HIV-1)
[9] = target: HIV-1 Env of isolate 92RW008 (HIV-1)
[10] = target: HIV-1 Env of isolate 92UG031 (HIV-1)
[11] = target: HIV-1 Env of isolate MGRM-C-004 (subtype C) (HIV-1)
[12] = target: HIV-1 envelope glycoprotein (Env) of isolate MGRM-C-010 (HIV-1)
[13] = target: HIV-1 Env of isolate 98CN006 (HIV-1)
[14] = target: HIV-1 Env of isolate THR0.18 (subtype B) (HIV-1)
[15] = target: HIV-1 Env of isolate MGRM-A-013 (subtype A) (HIV-1)
[16] = target: HIV-1 Env of isolate MGRM-Chronic-B-024 (subtype B) (HIV-1)
[17] = target: HIV-1 Env of isolate MGRM-AE-001 (subtype AE) (HIV-1)
[18] = target: HIV-1 Env of isolate SC422661.8 (subtype B) (HIV-1)
[19] = target: HIV-1 Env of isolate MGRM-A-014 (subtype A) (HIV-1)
[20] = target: HIV-1 Env of isolate MGRM-C-001 (subtype C) (HIV-1)
[21] = target: HIV-1 APV17 Env (pseudovirus) (HIV-1)
[22] = target: HIV-1 Env of isolate MGRM-G-011 (HIV-1)
[23] = target: HIV-1 Env of isolate MGRM-G-013 (HIV-1)
[24] = target: HIV-1 Env of pseudovirus MGRM-F1-006 (HIV-1)
[25] = target: HIV-1 Env of isolate SC422661.8 (Acute), clade B, on pseudovirus (HIV-1)
[26] = target: HIV-1 APV-13 envelope glycoprotein (Env) on pseudovirus (HIV-1)
[27] = target: HIV-1 Env of pseudovirus CMU02 (clade CRF01_AE) (HIV-1)
[28] = target: HIV-1 Env of isolate MGRM-D-018 (clade D pseudovirus) (HIV-1)
[29] = target: HIV-1 Env of isolate MGRM-D-013 (clade D pseudovirus) (HIV-1)
[30] = target: HIV-1 envelope glycoprotein (Env) of isolate MGRM-A-012, clade A (HIV-1)
[31] = target: HIV-1 envelope glycoprotein (Env) of isolate 92RW020, clade A (HIV-1)
[32] = target: HIV-1 Env of pseudovirus MGRM-G-024 (HIV-1, clade G isolate MGRM-G-024)
[33] = target: HIV-1 Env of isolate MGRM-D-021 (clade D pseudovirus) (HIV-1)
[34] = target: HIV-1 Env of pseudovirus MGRM-AE-006 (clade CRF01_AE) (HIV-1)
[35] = target: HIV-1 Env of isolate LAVI_C3 (HIV-1)
[36] = target: HIV-1 Env of isolate MGRM-D-018 (clade D), on pseudovirus (HIV-1)
[37] = target: HIV-1 MGRM-A-010 Env (pseudovirus, clade A) (HIV-1)
[38] = target: HIV-1 Env of isolate MGRM-F1-023 (HIV-1)

Sequence of 4980_N08 (PGT-143) (antibody) (VH): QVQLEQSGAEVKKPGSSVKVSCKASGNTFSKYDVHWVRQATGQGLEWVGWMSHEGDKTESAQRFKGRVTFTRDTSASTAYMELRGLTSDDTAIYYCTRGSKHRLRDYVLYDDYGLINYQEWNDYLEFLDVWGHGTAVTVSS
Sequence of 4980_N08 (PGT-143) (antibody) (VL): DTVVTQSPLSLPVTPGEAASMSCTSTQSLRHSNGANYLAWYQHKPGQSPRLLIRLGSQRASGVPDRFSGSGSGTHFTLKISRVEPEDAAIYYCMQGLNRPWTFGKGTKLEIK
Sequence of 5345_I01 (PGT-137) (antibody) (VH): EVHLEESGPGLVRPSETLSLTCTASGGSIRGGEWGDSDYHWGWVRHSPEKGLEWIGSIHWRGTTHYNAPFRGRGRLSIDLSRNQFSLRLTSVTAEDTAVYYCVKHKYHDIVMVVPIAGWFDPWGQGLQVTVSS
Sequence of 5345_I01 (PGT-137) (antibody) (VL): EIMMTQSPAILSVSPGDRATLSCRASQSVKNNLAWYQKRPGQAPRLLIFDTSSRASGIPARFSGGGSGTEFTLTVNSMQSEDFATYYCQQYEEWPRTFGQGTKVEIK
Sequence of 4970_K22 (PGT-144) (antibody) (VH): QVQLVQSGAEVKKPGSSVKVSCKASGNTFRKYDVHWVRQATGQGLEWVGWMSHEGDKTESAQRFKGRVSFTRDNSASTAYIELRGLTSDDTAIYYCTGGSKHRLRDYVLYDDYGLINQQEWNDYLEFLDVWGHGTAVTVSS
Sequence of 4970_K22 (PGT-144) (antibody) (VL): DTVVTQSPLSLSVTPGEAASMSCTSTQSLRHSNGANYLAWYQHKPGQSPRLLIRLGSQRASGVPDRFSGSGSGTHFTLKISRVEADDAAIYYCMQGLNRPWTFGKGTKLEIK
Sequence of 4993_K13 (PGT-141) (antibody) (VH): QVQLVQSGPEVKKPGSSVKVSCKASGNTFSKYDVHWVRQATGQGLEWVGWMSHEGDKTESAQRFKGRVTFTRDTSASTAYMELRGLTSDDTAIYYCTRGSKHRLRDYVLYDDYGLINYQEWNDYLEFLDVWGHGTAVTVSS
Sequence of 4993_K13 (PGT-141) (antibody) (VL): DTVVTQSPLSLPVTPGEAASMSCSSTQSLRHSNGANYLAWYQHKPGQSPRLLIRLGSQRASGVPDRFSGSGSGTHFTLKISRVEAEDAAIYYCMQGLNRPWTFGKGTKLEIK

5136_H01 (PGT-131) (antibody)
IC50 (µg/mL), pseudovirus neutralization [1]: > 50 µg/mL
IC50 (µg/mL), pseudovirus neutralization [2]: 4.05 µg/mL
IC50 (µg/mL), pseudovirus neutralization [3]: > 50 µg/mL
IC50 neutralization [4]: 0.177 µg/mL
IC50 neutralization [5]: 0.088 µg/mL
Primary Neutralization Index (B cell culture supernatant) [6]: 6.2
IC50 (µg/mL), pseudovirus neutralization [7]: 0.611 µg/mL
IC50 neutralization [8]: 1.91 µg/mL
IC50 [9]: 1.01 µg/mL
IC50 [10]: > 50 µg/mL
IC50 neutralization [11]: 3.71 µg/mL
IC50 (µg/mL), pseudovirus neutralization [12]: > 50 µg/mL
IC50 (µg/mL), pseudovirus neutralization [13]: 35.3 µg/mL
IC50 neutralization [14]: > 50 µg/mL
IC50 (µg/mL), pseudovirus neutralization [15]: > 50 µg/mL
IC50 neutralization [16]: > 50 µg/mL
IC50 (µg/mL), pseudovirus neutralization [17]: 4.8 µg/mL
IC50 neutralization [18]: > 50 µg/mL
IC50 (µg/mL), pseudovirus neutralization [19]: 15.4 µg/mL
IC50 neutralization [20]: > 50 µg/mL

4980_N08 (PGT-143) (antibody)
IC50 (neutralizing activity, pseudovirus) [21]: 0.618 µg/mL
IC50 (µg/mL), pseudovirus neutralization [17]: > 50 µg/mL
IC50 (µg/mL), pseudovirus neutralization [22]: 0.074 µg/mL
IC50 (µg/mL), pseudovirus neutralization [23]: > 50 µg/mL

2G12 (antibody)
IC50 (µg/ml), pseudovirus neutralization [24]: > 50 µg/mL
IC50 (µg/ml), pseudovirus neutralization [25]: 0.84 µg/mL
IC50, pseudovirus neutralization [26]: 23.9 µg/mL
IC50 [27]: > 50 µg/mL
IC50 (µg/ml), pseudovirus neutralization [28]: 0.12 µg/mL
IC50 (µg/ml), pseudovirus neutralization [29]: > 50 µg/mL
IC50 (µg/ml), pseudovirus neutralization [30]: > 50 µg/mL
IC50 (µg/ml), pseudovirus neutralization [31]: 0.48 µg/mL
IC50 (µg/ml), pseudovirus neutralization [32]: > 50 µg/mL
IC50 (µg/ml), pseudovirus neutralization [33]: 23 µg/mL
IC50 [34]: > 50 µg/mL
IC50 [35]: > 50 µg/mL

4993_K13 (PGT-141) (antibody)
IC50 (neutralizing activity, pseudovirus) [21]: 0.616 µg/mL
IC50 (µg/mL), pseudovirus neutralization [17]: > 50 µg/mL
IC50 (µg/mL), pseudovirus neutralization [22]: 0.086 µg/mL
IC50 (µg/mL), pseudovirus neutralization [23]: > 50 µg/mL

1496_C09 (PG9) (TCN-109) (antibody)
IC50 [2]: 0.371 µg/mL
IC50 (µg/ml), pseudovirus neutralization [24]: 1.45 µg/mL
IC50 (µg/ml), pseudovirus neutralization [25]: 0.79 µg/mL
IC50 [27]: 7.69 µg/mL
IC50 (µg/ml), pseudovirus neutralization [29]: 0.06 µg/mL
IC50, pseudovirus neutralization [36]: 0.0444 µg/mL
IC50 (µg/ml), pseudovirus neutralization [30]: 11.2 µg/mL
IC50 (µg/ml), pseudovirus neutralization [31]: 0.08 µg/mL
IC50 (µg/ml), pseudovirus neutralization [32]: 0.07 µg/mL
IC50 neutralization [37]: 0.0375 µg/mL
IC50 [34]: 0.05 µg/mL
IC50 (µg/mL), pseudovirus neutralization [22]: 0.335 µg/mL
IC50 [35]: 1.45 µg/mL

4970_K22 (PGT-144) (antibody)
IC50 (neutralizing activity, pseudovirus) [21]: 5.12 µg/mL
IC50 (µg/mL), pseudovirus neutralization [17]: > 50 µg/mL
IC50 (µg/mL), pseudovirus neutralization [22]: 1.58 µg/mL
IC50 (µg/mL), pseudovirus neutralization [23]: > 50 µg/mL

5345_I01 (PGT-137) (antibody)
IC50 (µg/mL), pseudovirus neutralization [1]: > 50 µg/mL
IC50 (µg/mL), pseudovirus neutralization [2]: 5.06 µg/mL
IC50 (µg/mL), pseudovirus neutralization [3]: > 50 µg/mL
IC50 neutralization [4]: 0.042 µg/mL
IC50 neutralization [5]: > 50 µg/mL
Primary Neutralization Index (B cell culture supernatant) [6]: 1.1
IC50 (µg/mL), pseudovirus neutralization [7]: > 50 µg/mL
IC50 neutralization [8]: 9.35 µg/mL
IC50 [9]: 0.148 µg/mL
IC50 [10]: > 50 µg/mL
IC50 neutralization [11]: 0.026 µg/mL
IC50 (µg/mL), pseudovirus neutralization [12]: > 50 µg/mL
IC50 (µg/mL), pseudovirus neutralization [13]: 1.22 µg/mL
IC50 neutralization [14]: > 50 µg/mL
IC50 (µg/mL), pseudovirus neutralization [15]: 49.2 µg/mL
IC50 neutralization [16]: > 50 µg/mL
IC50 (µg/mL), pseudovirus neutralization [17]: > 50 µg/mL
IC50 neutralization [18]: > 50 µg/mL
IC50 (µg/mL), pseudovirus neutralization [19]: 18.6 µg/mL
IC50 neutralization [20]: 21.5 µg/mL

VRC01 (antibody)
IC50 [3]: 0.452 µg/mL
IC50 [38]: 0.392 µg/mL
IC50 (µg/mL), pseudovirus neutralization [17]: 0.167 µg/mL
IC50 (µg/mL), pseudovirus neutralization [22]: 0.065 µg/mL
IC50 (µg/mL), pseudovirus neutralization [23]: 0.553 µg/mL
